Laboratory results reported in US20070042946A1 (NATIONAL RESEARCH COUNCIL OF CANADA, published 2007).

What was measured:
human α-thrombin [1] = molecular target: T1, human α-thrombin (human, UniProt P00734 328-622); experiment: amidolytic assay, Tos-Gly-Pro-Arg-pNA hydrolysis by human α-thrombin, 25° C.
Protocol: Kinetics of thrombin-catalyzed hydrolysis of the chromogenic substrate Tos-Gly-Pro-Arg-p-nitroanilide were followed by absorbance at 405 nm on a Spectramax plate reader thermostated at either 25° C. or 37° C. according to the method of Maragnore et al (supra). The concentrations of Tos-Gly-Pro-Arg-p-nitroanilide ranged from 2 to 400 μM. […] The KM and Vₘₐₓ values were calculated accordingly and kcat values were determined by dividing Vₘₐₓ by the enzyme (thrombin) concentration. The inhibition assays were performed in the clotting buffer with a certain fixed concentration of α-thrombin (˜0.3 nM) such that linear progress curves were achieved within at least 15 min in the absence of the inhibition. The total volume of the solution was fixed at 200 μl. Reactions were initiated by addition of the chromogenic substrate to the wells containing thrombin and a certain concentration of the peptide inhibitors premixed for less than 2 min. Alternatively, the substrate was first mixed with the peptide inhibitor and the total volume was adjusted to 120 μL using the clotting buffer. Eighty microliters of human α-thrombin in the clotting buffer (˜0.3 nM final concentration) was added to initiate the reaction. The concentration of the peptides ranged from 0.5 nM to 10 μM. Kinetics data from initial rate experiments were used to construct Lineweaver-Burke plot; i.e. the relationship of (substrate concentration)⁻¹ versus (initial velocity)⁻¹ which. were analysed by linear regression with MicroCal Origin 4.1 program (MicroCal, MD) or using the GraphPad Prism software. The Kᵢ values of the inhibitors were determined using the equation: Kᵢ=[I]/{(SL₀/SL₁)−1}, where [0098] [I] is the inhibitor concentration, [0099] SL₀ is the slope of the reaction in the absence of inhibitors, and [0100] SL₁ is the slope of the reaction in the presence of the inhibitor. Alternatively, Dixon plots of inverse velocity versus the inhibitor concentrations were generated with the Sigmaplot™ software. Every Dixon plot contained an array of data corresponding to different substrate concentrations and the Kᵢ values were determined from the intersections. Following Peptide Cleavage by HPLC

human α-thrombin [2] = molecular target: T1, human α-thrombin; experiment: cell-based or functional assay
bovine α-thrombin = bovine α-thrombin (bovine, UniProt P00735 318-625); experiment: cell-based or functional assay
human α-thrombin [3] = molecular target: T1, human α-thrombin; experiment: amidolytic assay, Tos-Gly-Pro-Arg-pNA hydrolysis by human α-thrombin, 25° C.; synthetic peptide
Protocol: (§1) Kinetics of thrombin-catalyzed hydrolysis of the chromogenic substrate Tos-Gly-Pro-Arg-p-nitroanilide were followed by absorbance at 405 nm on a Spectramax plate reader thermostated at either 25° C. or 37° C. according to the method of Maragnore et al (supra). The concentrations of Tos-Gly-Pro-Arg-p-nitroanilide ranged from 2 to 400 μM. […] The KM and Vₘₐₓ values were calculated accordingly and kcat values were determined by dividing Vₘₐₓ by the enzyme (thrombin) concentration. The inhibition assays were performed in the clotting buffer with a certain fixed concentration of α-thrombin (˜0.3 nM) such that linear progress curves were achieved within at least 15 min in the absence of the inhibition. The total volume of the solution was fixed at 200 μl. […] Kinetics data from initial rate experiments were used to construct Lineweaver-Burke plot; i.e. the relationship of (substrate concentration)⁻¹ versus (initial velocity)⁻¹ which. were analysed by linear regression with MicroCal Origin 4.1 program (MicroCal, MD) or using the GraphPad Prism software. The Kᵢ values of the inhibitors were determined using the equation: Kᵢ=[I]/{(SL₀/SL₁)−1}, where [0098] […] Every Dixon plot contained an array of data corresponding to different substrate concentrations and the Kᵢ values were determined from the intersections. […]

human α-thrombin [4] = molecular target: T1, human α-thrombin; experiment: amidolytic assay, Tos-Gly-Pro-Arg-pNA hydrolysis by human α-thrombin, 25° C.; recombinant peptide
Protocol: as §1

Binder | Ki (human α-thrombin [1]) [nM] | IC50 (DCT), clotting assay, 37° C. (human α-thrombin [2]) [nM] | other results
GSAVPRPQIHNDGDFEEIPEEYLQ [GS-AV22-I] | 41 | 33 | 
GSIQPRPQIHNDGDFEEIPEEYLQ [GS-IQ22-I] | > 400 | 10 | 
FDPRPQKHNDGDFEEIPEEYLQ [FD22-K] |  | 60 | 
WDPRPQSRNDGDYEPIPEEYLQ [WD22-SR-YP] |  | 32 | 
FNPRPQSHNDGDFEEIPEEYLQ (Tested as recombinant peptide (FN22^(a), released by CNBr from the MFH fusion) and as synthetic peptide; also called FN22^(a) (recombinant preparation)) [FN22] |  |  | IC50, clotting assay; recombinant peptide (bovine α-thrombin): 289 nM; IC50 (DCT), clotting assay, 37° C.; recombinant peptide FN22^(a) (human α-thrombin [2]): 150 nM; IC50 (DCT), clotting assay, 37° C.; synthetic peptide (human α-thrombin [2]): 67 nM; Ki (human α-thrombin [3]): 80 nM; Ki (human α-thrombin [4]): 100 nM
FNPRPQIHNDGDFEEIPEEYLQ [FN22-I] | 360 | 45 | 
FDPRPQRHNDGDFEEIPEEYLQ (Synthetic) [FD22-R] | 45 | 32 | 
LDPRPQSHNDGDFEEIPEEYLQ (Synthetic) [LD22] | 260 | 228 | 
IQPRPQIHNDGDFEEIPEEYLQ [IQ22-I] | 49 | 39 | 
WDPRPQRHNDGDFEEIPEEYLQ (Synthetic) [WD22-R] | 17 | 22 | 
FDPRPQDHNDGDFEEIPEEYLQ (Synthetic) [FD22-D] | 58 | 53 | 
FQPRPQMHNDGDFEEIPEEYLQ [FQ22-M] | 64 | 11 | 
FDPRPQSHNDGDFEEIPEEYLQ (Tested as recombinant peptide (FD22^(a), released by CNBr from the MFH fusion) and as synthetic peptide; also called FD22^(a) (recombinant preparation)) [FD22] |  |  | IC50 (DCT), clotting assay, 37° C.; recombinant peptide FD22^(a) (human α-thrombin [2]): 50 nM; IC50 (DCT), clotting assay, 37° C.; synthetic peptide (human α-thrombin [2]): 45 nM; Ki (human α-thrombin [3]): 48 nM; Ki (human α-thrombin [4]): 55 nM
FDPRPQHHNDGDFEEIPEEYLQ [FD22-H] |  | 70 | 
FEPRPQSHNDGDFEEIPEEYLQ [FE22] |  | 80 | 
FHPRPQSHNDGDFEEIPEEYLQ [FH22] |  | > 150 | 
FEPRPQDHNDGDFEEIPEEYLQ [FE22-D] |  | > 125 | 
WDPRPQSRNDGDFEPIPEEYLQ [WD22-SR-P] |  | 53 | 
